± gives the uncertainty stated by the source.
Experiment: amyloid nucleation score (Sup35N fusion, yeast selection) (log enrichment); library NNK3; higher = more nucleation; inactive = no reads after selection
Method in brief: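 Three technical output replicates were used for random libraries. Psi-negative yeast expressing peptides of 20 random codons fused to Sup35N were induced with 100 μM copper sulfate for 24 hours and grown 7 days at 30°C on medium lacking adenine and uracil, and input and output plasmid inserts were Illumina-sequenced, excluding sequences with under 100 input reads. The nucleation score is the DiMSum log enrichment of output over input reads, centred on the mode score of non-aggregating sequences.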

Amyloid nucleation score, -0.232 ± 0.62:
MPLTFTSRSSDVICLNVGSG

Amyloid nucleation score, 2.21 ± 0.064:
TNLACWVTFCPNCMMLDYLG

Amyloid nucleation score, 1.42 ± 0.14:
YMCSLLMIAKSMPGRG

Amyloid nucleation score, 0.714 ± 0.32:
LPGSDRQFPREAVHYSRMRG

Amyloid nucleation score, 1.99 ± 0.1:
VWRWGDLNSSGCCMWSRLNM

Amyloid nucleation score, 2.12 ± 0.074:
CDSRSCFKVYASLAARSDQR

Amyloid nucleation score, 1.63 ± 0.088:
IFYVWQLLYYGEQRGGS

Amyloid nucleation score, 0.129 ± 0.98:
NEVVQSLTRSIFRRYSKSAM

Amyloid nucleation score, 2.52 ± 0.062:
FLVNPVCSMVSSYCSFPSPK

Amyloid nucleation score, 0.673 ± 0.2:
CSAWGLRKF

Amyloid nucleation score, 0.345 ± 0.37:
FTMALMLALTTGISSMSVGG

Amyloid nucleation score, -0.156 ± 0.34:
TGFYDCNLGLDLCIAIWVCS

Amyloid nucleation score, -0.631 ± 0.96:
RFNGVVQEIVFCWRYRFVGN

Amyloid nucleation score, 0.872 ± 0.15:
RLVLYMPVLLSMVVTNWALL

Amyloid nucleation score, -0.036 ± 0.55:
IVCNIN

Amyloid nucleation score, 1.97 ± 0.1:
YFQTIVFRGTSGYCIVNQQV

Amyloid nucleation score, 0.614 ± 0.32:
AITYTTSLKVSFVSKGVSGA

Amyloid nucleation score, 0.483 ± 0.24:
PLRKCAMCSWVSSGEGPTYP

Amyloid nucleation score, 0.096 ± 0.68:
TEFKAFHNCQINRSDTTLWL

Amyloid nucleation score, -0.007 ± 0.82:
IQTQTGTLVSRPLQPTAVVR

Amyloid nucleation score, 1.13 ± 0.16:
LMVMGVSSCLTFAIDILRNM

Amyloid nucleation score, inactive:
YDKVFLPLGWHWPERPMGQT
WVCPCKSGMSQNWRFYNPSR
SGVTHDHLTYVLGGGKVVSR
NCQSTTTQGILCISLSYMEI
QALGVGN
RIEYVVPITPM
NHSES
MVLYGAHECRDDKSVSLTRC
GRSWVLV
YKNKTSNMLICNAF
IGGRKALAALSVYHNVMRCL
TWKQDWDNFSYVLNSSSHST
ATPKPKGHY
RDSFTVIVSSSSPMPKLVPE
DVLTVMSQLVVMKTL
DFSMSVNSA
WLHSGYGSNLPKATMRYCPN
GDCVLDPDLRSWDEW
VNEERGNYVWSCIMRYHLWD
FNWFCLFLWMRNRSKPFWTM
FWWKSYFFNLKV
SSSNLLKPSYFCKGSRGASQ
WCRVIRTSGIYLGCASSGVV
TLLRLHQVAY
FISSSSTRILQYGRYTVEIN
LCGSKICFLDSYDVESLISR
SRFLKCF
TYMFMVAYNVSTRPRKLLNC
IDDEIANSSFQVWLKGGFLV
WPSLYHQMYGVYLGLLVILK
VNTFGLDHEITSFMMCGETG
FVSPNLIVMVWVHWRSEINR
RFLRRIIDIVMGQSGNWMIR
RSLNPWLYAVSLHYEQFVGV
PHIGYCMW
WHSMSCFSPKLGWDQFPVLR
SLRSCVYPMDDGIMQCWSSR
CYYRCDCLCMTWWGHRVIVV
YGMGSGTTMVCPKVAWG
GSKFIFFLMFYGVWLRSPSK
RFHDNFAAK
SDKPSMLKMIHVMR
FLMNHVLQNW
VSFEFEIRESSGISCM
SFFESCF
SNYWNWGRGYVCSRFRELVI
FHSSS
HRYVKALRFF
RTGPTRALRVLHLDAMDALV
ELLFIDGWKST
RFTRMWTDWCAGLSGSLRCS
SMIGQSVEFYLISCYRGLCT
GNCLIRLTYR
SWLFHRYFVGSYCVLMDMRV
FAVQCWKAGVAKNYGMHFVC
DCILGGSMMGRNTSMSAHDN
YKNIFSWSPNSWTYKCSVNN
SSGNMCFYPAPGYYWIATSK
TFPRERWDCPCKVIFRSVTP
VINRHVCGRVGMLTGFDGLT
NTVTHR
TDKAICISLFRVIRLYAYAK
QSYVSFYMQVLRSDRTDILR
IKVLVWFRSRCGNGANNLVC
PVSYVLEEVEPRVRVSGPSG
FQMVA
VQRSYWICQLPAGVSWSGI
TENQS
SIYYSAILMGYWMDVKSLQY
GVSNRHGGTIYRQRAMHSVG
PSHWFISL
EGNYAYAVVSHAHFEV
EDAFWYYVEWPYKWLQGGHS
EFFHNYVINMERYNCVLVRM
EYSLTLPYFVGSALPPQNTC
WRLEL
FSAGGVPYYICYSCIAKFRL
VHVVLIIWTSHQLTCADLAY
IVLNIMHNVSHFLGLYVEG
FSLWEHPVKIMCLFVYVACG
IYVLNLMLFVFCRNVLCDGY
KRRSTRL
TMKIMFVEPWKCRAAFQL
YDSVNLSLVLHSKRHYAYCA
TSFFNNFSLLFVLVWNVLRG
RDVCVHPNHFKCGAAMFPED
LCFFV
SFSYFRVSFEYGRCHRYAEN
LCPLMAY
LCPRFGEEWCC
QKRIQFTSECTRKRNFWLFS
STTVLQQSLLKNKNLSWDAS
VVLYRIGVLSN
NPLCTSYNQHPRGYHALTYN
LHKALQYTKTLSESRRLCNR
LTASYSFVTTVGYSGLDLKV
WDIWCRS
IICYSWRRFLC
LAIFMDSENSYKRMHTVT
NGDYDIIRSTCYTSKVYQSV
AGTKSLRNYGWCLYDGGFYH
CLILSWYKYCSRGEMMHMKH
IARFGVKSVGWSFAENMSST
GYLLTVLLLSMFNSFDNDWL
NCELGYARPLGDAMLNRAWF
VKMTGDVVTLHLRDLINCWA
WMVYDSLILFHDVRRSYLPM
KYWLMVWRFNYCMTYNGGLE
VLSVLFFLLLSPPIRFQVEG
YNSLRGR
YLNVVWYGALTWSDARFRNL
RLMFWRELGLFSKFKLSIQG
LSIYRFSCTNSRCLMDLFI
IIFFNSDMNLGTDV
DQCVLRLPFVIRGSHVSGRK
LPYTGIYSRFRDRLWCVLKT
NYDFWVQTISECCELEFVM

Amyloid nucleation score, 3.06 ± 0.079:
LYFFYMPQTWVVSRCCGYNP

Amyloid nucleation score, 1.12 ± 0.14:
TVIKPWLLICCDLFREVGFA

Amyloid nucleation score, -0.692 ± 1.4:
RPSFLVGRFMTVLKSPRHDV

Amyloid nucleation score, 1.18 ± 0.14:
VGNLCVLKGTTIMFGIMGST

Amyloid nucleation score, -0.165 ± 0.33:
DSGKC

Amyloid nucleation score, 0.858 ± 0.12:
INGDNAPGYYYIMMIPRDIH

Amyloid nucleation score, 0.866 ± 0.25:
SPFEFRCIVESEFCMKNWAG

Amyloid nucleation score, 0.758 ± 0.14:
NFIQVMAIIGLFAVHRGCVT

Amyloid nucleation score, 1.05 ± 0.11:
TLSYRMFINKPSGMMCEHFN

Amyloid nucleation score, -0.261 ± 0.52:
MLDISMEVSGCSILS

Amyloid nucleation score, -0.346 ± 0.8:
TYFYSIIYYIYGYVFLRRAY

Amyloid nucleation score, -0.016 ± 0.86:
CPRGPWFFTTTAVTSALNIS

Amyloid nucleation score, 1.94 ± 0.068:
LIIGCGIFSLNS

Amyloid nucleation score, 0.005 ± 0.58:
FHSSFSVYCPFNSMLASV

Amyloid nucleation score, 3.13 ± 0.07:
NSVNMTRCRVYTCFAFCNW

Amyloid nucleation score, 1.73 ± 0.11:
CVWLVVTSDFLFRQLL

Amyloid nucleation score, 2.5 ± 0.053:
SCIFNWFGFYNIINVFNLCF

Amyloid nucleation score, -0.167 ± 0.75:
ALFSFDNSNYMVSNGAIGRV

Amyloid nucleation score, 0.397 ± 0.42:
LYLFMAYGVLGVLRQ

Amyloid nucleation score, -0.501 ± 1.9:
IKNMHRLDFR

Source: the supplement of paper PMC12042874
